Data published in the MegaScale stability set (Tsuboyama et al. 2023).

B1: HEEH_KT_rd6_0790 (parent)
chain: SEEEEEEWRRAKERGEEIIILGILWKPNDEEAERRIKEALRRV

Variants of: B1
Experiment: folding stability dG (cDNA display proteolysis); higher = more stable
Details: PBS, room temperature

Folding stability dG [kcal/mol]: each site, then its substitutions
L24: A 1.53 | M 1.79 | N 1.34 | T 1.75 | I 1.69 | F 1.64 | H 1.75 | R 1.95 | D 0.729 | P 1.39 | G 0.898 | K 2.14 | Q 1.66 | S 1.67 | E 1.29 | V 1.79 | W 1.26
K26: F 1.51 | H 1.46 | Q 1.64 | S 1.99 | W 1.53 | T 2.12 | A 1.87 | G 1.52 | N 1.6 | V 2.06 | E 1.26 | R 2.4 | L 1.65 | M 1.7 | I 2.02 | Y 1.51 | P 1.26 | D 1.26
R10: Q 1.81 | G 1.56 | S 1.5 | F 1.56 | K 2.04 | E 1.33 | T 1.55 | Y 1.69 | V 1.72 | W 1.77 | I 1.8 | D 1.2 | A 1.82 | M 1.86 | H 1.76 | P 0.8 | N 1.69 | L 1.82 | C 2.25
E13: P 0.785 | R 1.77 | D 1.93 | M 2.23 | W 1.78 | N 1.69 | F 1.77 | Y 1.78 | V 1.94 | T 1.77 | G 1.49 | H 1.68 | A 2.22 | S 2.1 | K 1.86 | I 2.04 | L 2.4 | Q 2.15
I20: V 1.84 | H 0.981 | T 0.843 | D 0.628 | N 0.804 | M 1.28 | G 0.748 | S 0.816 | P 0.587 | W 1.17 | K 0.813 | E 0.692 | L 1.35 | Y 1.5 | R 1.08 | C 2.07 | F 2.27 | Q 0.945 | A 0.825
E17: F 1.92 | M 2.02 | W 2.29 | I 1.94 | C 2.35 | N 1.95 | A 2.12 | V 2.08 | L 1.89 | G 1.53 | S 2.18 | D 1.81 | Y 1.91 | Q 2.02 | K 1.74 | H 1.89 | P 2.5 | R 1.7 | T 2.16
I18: T 1.84 | F 2.1 | L 1.39 | M 1.42 | P 0.472 | R 1.3 | N 1.06 | G 0.605 | S 1.17 | C 2.38 | Q 1.3 | A 1.59 | K 1.68 | Y 1.86 | E 0.975 | V 2.15 | W 1.67 | H 1.29 | D 0.812
I23: S 0.659 | T 1.16 | K 1.08 | Q 0.969 | E 0.981 | M 1.08 | H 1.2 | Y 0.775 | W 0.765 | F 1.26 | N 0.85 | V 1.55 | P 0.9 | A 0.977 | L 1.46 | R 0.853 | D 0.764 | G 0.931
P27: M 1.18 | G 1.21 | Y 1.22 | E 1.37 | N 1.22 | D 1.35 | R 0.846 | H 0.914 | W 1.42 | S 1.02 | L 1.15 | C 2.1 | F 1.41 | K 1.12 | Q 1.2 | A 1.13 | I 1.27 | T 1.16 | V 1.2
R9: Y 1.95
